We go through 7 molecules from patent publication US20100167997A1, “METHOD FOR STIMULATION COLLAGEN SYNTHESIS AND/OR KGF EXPRESSION” (ATYR PHARMA, INC., priority 2005, published 2010).

Test [1] concerns collagen. Briefly: RT-PCR analysis of collagen transcript in foreskin fibroblast cells. In kind it is cell-based. As to conditions: for collagen synthesis (RT-PCR), deletion fragments, compared with C-terminal fragment SEQ ID NO: 15: 100 nM for 2 hours and 6 hours, FIG. 6; for synthesis of collagen (RT-PCR), AIMP1 fragments: 100 nM, 0, 1, 2, 4 and 6 hours, FIG. 5. How it is done: (§1) In order to measure the collagen transcript RNA induced by the AIMP1, foreskin fibroblast cells (5×10^4 cells/well; obtained from MTT; accession number: MC1232) were cultured in 10% serum-containing DMEM medium on a 6-well plate for 12 hours and then cultured in serum-free medium for about 3 hours. Next, the cultured cells were treated with the AIMP1 (SEQ ID NO: 1) at varying AIMP1 concentrations of 0, 20, 50, 100 and 200 nM for 6 hours (RT-PCR) or 12 hours (Western blot).
The cells treated with the AIMP1 at varying concentrations in Example <1-1> were collected and dissolved in TRIzol (invitrogen). 10% by weight of chloroform was added to the cell lysate, and mixed well. The mixture was centrifuged at 12,000 g for 15 minutes and the supernatant was collected. Ethanol was added to the collected supernatant to a final concentration of 70%. Then, the supernant was centrifuged at 26,000 g for 5 minutes and the precipitant was collected. The precipitant was dried and dissolved in sterilized distilled water, and the total RNA was extracted. 3 μg of the total RNA was used to prepare cDNA. Then, the cDNA was amplified by PCR using collagen-specific primers (SEQ ID NO: 4 and SEQ ID NO: 5). At this time, for use as a control group, the cDNA was subjected to PCR using GADPH-specific primers (SEQ ID NO: 6 and SEQ ID NO: 7). The PCR reaction consisted of: pre-denaturation of the template DNA at 95° C. for 5 min, followed by 25 cycles of 1 min at 95° C., 1 min at 52° C. and 1 min at 72° C., and then a final extension for 5 min at 72° C.
(§2) Foreskin fibroblast cells (5×10^4 cells/well) were cultured in 10% serum-containing DMEM medium on a 6-well plate for 12 hours, and then, cultured in serum-free medium for about 3 hours. Next, the cultured cells were treated with 100 nM of the AIMP1 at various time intervals (0, 2, 4, 6, 12 and 24 hours).
(§3) Foreskin fibroblast cells (5×10^4 cells/well) were cultured in 10% serum-containing DMEM medium on a 6-well plate about 12 hours, and then, cultured in serum-free medium for about 3 hours. Then, the cultured cells were treated with 100 nM of the N-terminal and C-terminal fragments of the AIMP1 prepared in Reference Example 1, at various time intervals of 0, 1, 2, 4, and 6 hours. Then, RT-PCR was performed in the same manner as in Example <1-2> using each of collagen-specific primers (SEQ ID NO: 4 and SEQ ID NO: 5), KGF-specific primers (SEQ ID NO: 8 and SEQ ID NO: 9) and GADPH-specific primers (SEQ ID NO: 6 and SEQ ID NO: 7).
(§4) Foreskin fibroblast cells (5×10^4 cells/well) were cultured in 10% serum-containing DMEM medium on a 6-well plate for 12 hours and then cultured in serum-free medium for about 3 hours. Next, the cultured cells were treated with each of the N-terminal fragments (SEQ ID NOS: 12, 13 and 14) and C-terminal fragment (SEQ ID NO: 15) of AIMP1 prepared in Reference Example 2 at an concentration of 100 nM for 2 hours and 6 hours, respectively. The treated cells were subjected to RT-PCR using collagen-specific primers (SEQ ID NOS: 4 and 5), KGF-specific primers (SEQ ID NOS: 8 and 9) and GADPH-specific primers (SEQ ID NOS: 6 and 7) in the same manner as in Example <1-2>.

Test [2] deals with KGF. The test can be described thus: RT-PCR analysis of KGF expression in foreskin fibroblast cells. To be noted: for KGF synthesis (RT-PCR), deletion fragments, compared with C-terminal fragment SEQ ID NO: 15: 100 nM for 2 hours and 6 hours, FIG. 6; for synthesis of KGF (RT-PCR), AIMP1 fragments: 100 nM, 0, 1, 2, 4 and 6 hours, FIG. 5. In kind it is cell-based. The protocol: From foreskin fibroblast cells treated with 100 nM of the AIMP1 for 2 hours, the total RNA was extracted in the same manner as described in Example <1-2>. Then, the extract was amplified by RT-PCR using KGF-specific primers (SEQ ID NO: 8 and SEQ ID NO: 9). The control groups were amplified using cyclin D-specific primers (SEQ ID NO: 10 and SEQ ID NO: 11) and GADPH-specific primers (SEQ ID NO: 6 and SEQ ID NO: 7), respectively. The PCR reaction consisted of: predenaturation of the template DNA at 95° C. for 5 min, followed by 25 cycles of 1 min at 95° C., 1 min at 52° C. and 1 min at 72° C., and then, a final extension for 5 min at 72° C.
as §3, §4

Test [3] concerns collagen. The test can be described thus: Western blot analysis of collagen (anti-collagen I antibody) in foreskin fibroblast cells. In kind it is cell-based. As to conditions: 200 nM for 12 hours, FIG. 7. The protocol: as §1
The cells treated with the AIMP1 at varying AIMP1 concentrations in Example <1-1> were collected and lysed in a cell lysis buffer (50 mM HEPES, pH 7.5, 150 mM NaCl, 10% glycerol, 5 mM EGTA, 1 mM sodium orthovanadate, 10 mM NaF, 12 mM b-glycerophosphate, 1 mM DTT, 1 mM PMSF, […] aprotinin, and 1% NP40). Lysed cells were centrifuged at 26,000 g for 15 minutes and the cell extract was isolated. 30 μg of the cell extract was separated by 8% SDS-PAGE and immunoblotted with an anti-collagen I antibody (Abcam) according to any conventional method known in the art. As a control group, an anti-tubulin antibody (Sigma) was used.
as §2
Foreskin fibroblast cells (5×10^5 cells/well) were cultured in 10% serum-containing DMEM medium on a 6-well plate for 48 hours and then cultured in serum-free medium for about 3 hours. Next, the cultured cells were treated with each of the AIMP1 (SEQ ID NO: 1) and the AIMP1 N-terminal fragments (SEQ ID NOS: 2 and 12) at a concentration of 200 nM for 12 hours. As a control group, cells without treatment were used.
The cells treated with each of the AIMP1 and its N-terminal fragments and the control cells were collected at the indicated time and subjected to Western blot analysis in the same manner as in Example <1-3>.
(In western blotting, separated proteins are transferred to a membrane and probed.)

Test [4] has as its system KGF. The test can be described thus: Activity to stimulate KGF expression (data not shown).
The test system of test [5] is collagen. The test can be described thus: Activity to stimulate collagen synthesis (data not shown).

With “SEQ ID NO: 14: N-terminal deletion fragment of AIMP1, amino acids 1-53 (MANNDAVLKRLEQKGAEADQIIEYLKQQVSLLKEKAILQATLREEKKLRVENA; PEPTIDE (1)..(53) AIMP1-(1-53); listed as Homo sapiens)”, the “collagen synthesis (RT-PCR), deletion fragments, compared with C-terminal fragment SEQ ID NO: 15” value with collagen [1] is recorded as “more stimulated”. The “KGF synthesis (RT-PCR), deletion fragments, compared with C-terminal fragment SEQ ID NO: 15” value with KGF [2] is on record as “more stimulated”.
For the molecule “SEQ ID NO: 12: N-terminal deletion fragment of AIMP1, amino acids 6-46 (AVLKRLEQKGAEADQIIEYLKQQVSLLKEKAILQATLREEK; PEPTIDE (1)..(41) AIMP1-(6-46); listed as Homo sapiens)”, the “collagen synthesis (RT-PCR), deletion fragments, compared with C-terminal fragment SEQ ID NO: 15” value in the test on collagen [1] was “more stimulated”. The “synthesis of collagen, protein levels (Western blot), compared with cells without treatment” value with collagen [3] is reported as “more stimulated”. Also, in the test with KGF [2], the “KGF synthesis (RT-PCR), deletion fragments, compared with C-terminal fragment SEQ ID NO: 15” value is given as “more stimulated”.
Take “SEQ ID NO: 13: N-terminal deletion fragment of AIMP1, amino acids 1-46 (MANNDAVLKRLEQKGAEADQIIEYLKQQVSLLKEKAILQATLREEK; PEPTIDE (1)..(46) AIMP1-(1-46); listed as Homo sapiens)”: in the test on collagen [1], the “collagen synthesis (RT-PCR), deletion fragments, compared with C-terminal fragment SEQ ID NO: 15” value was “more stimulated”. Moreover, the “KGF synthesis (RT-PCR), deletion fragments, compared with C-terminal fragment SEQ ID NO: 15” value with KGF [2] is given as “more stimulated”.

B1: C-terminal fragment: C-terminal fragment of AIMP1, amino acids 148-312 (protein, listed as Homo sapiens)
chain: KPIDVSRLDLRIGCIITARKHPDADSLYVEEVDVGEIAPRTVVSGLVNHVPLEQMQNRMVILLCNLKPAKMRGVLSQAMVMCASSPEKIEILAPPNGSVPGDRITFDAFPGEPDKELNPKKKIWEQIQPDLHTNDECVATYKGVPFEVKGKGVCRAQTMSNSGIK
modifications: PEPTIDE (1)..(165) AIMP1-(148-312)
As to B1, in the test on collagen [1], the “synthesis of collagen (RT-PCR), AIMP1 fragments” value is “no significant effect”. Besides, the “synthesis of KGF (RT-PCR), AIMP1 fragments” value in the test with KGF [2] is “no significant effect”.

B2: SEQ ID NO: 2: N-terminal fragment of AIMP1, amino acids 1-147 (protein, listed as Homo sapiens)
chain: MANNDAVLKRLEQKGAEADQIIEYLKQQVSLLKEKAILQATLREEKKLRVENAKLKKEIEELKQELIQAEIQNGVKQIAFPSGTPLHANSMVSENVIQSTAVTTVSSGTKEQIKGGTGDEKKAKEKIEKKGEKKEKKQQSIAGSADS
modifications: PEPTIDE (1)..(147) AIMP1-(1-147)
In the case of B2, the “synthesis of collagen (RT-PCR), AIMP1 fragments” value in the test on collagen [1] is recorded as “stimulated”. Further, in the test with collagen [3], the “synthesis of collagen, protein levels (Western blot), compared with cells without treatment” value is given as “more stimulated”. The “synthesis of KGF (RT-PCR), AIMP1 fragments” value in the test with KGF [2] was “stimulated”.

B3: SEQ ID NO: 27: fragment consisting of amino acids 1-192 of the AIMP1 (protein, listed as Homo sapiens)
chain: MANNDAVLKRLEQKGAEADQIIEYLKQQVSLLKEKAILQATLREEKKLRVENAKLKKEIEELKQELIQAEIQNGVKQIAFPSGTPLHANSMVSENVIQSTAVTTVSSGTKEQIKGGTGDEKKAKEKIEKKGEKKEKKQQSIAGSADSKPIDVSRLDLRIGCIITARKHPDADSLYVEEVDVGEIAPRTVVSG
modifications: PEPTIDE (1)..(192) AIMP1-(1-192)
notes: fragment consisting of amino acids 1-192 of the AIMP1
B3: the “activity to stimulate KGF expression” value in the test with KGF [4] is “have the activity to stimulate collagen synthesis and KGF expression”. The “activity to stimulate collagen synthesis” value with collagen [5] is listed as “have the activity to stimulate collagen synthesis”.

B4: SEQ ID NO: 28: fragment consisting of amino acids 6-192 of the AIMP1 (protein, listed as Homo sapiens)
chain: AVLKRLEQKGAEADQIIEYLKQQVSLLKEKAILQATLREEKKLRVENAKLKKEIEELKQELIQAEIQNGVKQIAFPSGTPLHANSMVSENVIQSTAVTTVSSGTKEQIKGGTGDEKKAKEKIEKKGEKKEKKQQSIAGSADSKPIDVSRLDLRIGCIITARKHPDADSLYVEEVDVGEIAPRTVVSG
modifications: PEPTIDE (1)..(187) AIMP1-(6-192)
notes: fragment consisting of amino acids 6-192 of the AIMP1
In the case of B4, the “activity to stimulate KGF expression” value in the test on KGF [4] is “have the activity to stimulate collagen synthesis and KGF expression”. In addition, the “activity to stimulate collagen synthesis” value in the test with collagen [5] is recorded as “have the activity to stimulate collagen synthesis”.
